From paper PMC5473249

Target: FabXol3 (omalizumab-derived Fab with three point mutations)
Test: SPR; FabXol3, FabXol or intact omalizumab amine-coupled at low density; IgE-Fc flowed over, 2-fold dilutions from 100 nM; 20 mM HEPES pH 7.4, 150 mM NaCl, 0.005% P-20; 25 °C; monophasic kinetics at low concentrations

B1: IgE-Fc, P01854 105-427 (domain or fragment)
chain: DIVASRDFTPPTVKILQSSCDGGGHFPPTIQLLCLVSGYTPGTIQITWLEDGQVMDVDLSTASTTQEGELASTQSELTLSQKHWLSDRTYTCQVTYQGHTFEDSTKKCADSNPRGVSAYLSRPSPFDLFIRKSPTITCLVVDLAPSKGTVQLTWSRASGKPVNHSTRKEEKQRNGTLTVTSTLPVGTRDWIEGETYQCRVTHPHLPRALMRSTTKTSGPRAAPEVYAFATPEWPGSRDKRTLACLIQNFMPEDISVQWLHNEVQLPDARHSTTQPRKTKGSGFFVFSRLEVTRAEWEQKDEFICRAVHEAASPSQTVQRAVSVNPGK
modifications: not checked
Kd: 1 nM
koff: 0.0008 s⁻¹
kon: 1.2e+06 M⁻¹ s⁻¹
